Laboratory results: US20160319033A1 (INSERM INSTITUT NATIONAL DE LA SANTE ET DE LA RECHERCHE …, published 2016)

How the values were obtained:
[1] = biological target: T1, HER3 Snap-tagged, on HEK cells (human, UniProt P21860 20-1342, Snap-tag labelled with Lumi4-terbium cryptate donor); test: Tag-Lite HTRF on HER3 Snap-tagged HEK cells, d2-labelled mAb, co-incubated with NRG
T1 construct: whole, on cells; also called HER3 Snap-tagged HEK cells; not shown: Snap-tag (CisBio Tag-Lite)
Procedure: (§1) After 16 h of incubation, the fluorescence of Lumi4-terbium and d2 was measured respectively at 620 and 665 nm (60 μs delay, 400 μs integration) upon 337 nm excitation on a Pherastar FS instrument.

[2] = biological target: T1, HER3 Snap-tagged, on HEK cells; test: Tag-Lite HTRF on HER3 Snap-tagged HEK cells; d2-labelled 9F7-F11 varied; without NRG
Procedure: as §1

[3] = biological target: T2, human HER3 receptor on cells (human, UniProt P21860 20-1342); test: fluorescence of d2-labelled NRG on HER2/HER3-transfected 3T3 fibroblasts; 9F7-F11 varied; half-maximal enhancement of the binding of labelled NRG to HER3
T2 construct: whole, on cells; also called ErbB3
Procedure: (§2) After KREBS washing, fluorescence at 620/670 nm was measured using a Pherastar microplate reader.

[4] = biological target: T1, HER3 Snap-tagged, on HEK cells; test: Tag-Lite HTRF on HER3 Snap-tagged HEK cells, with NRG against without NRG
Procedure: as §1

[5] = biological target: T1, HER3 Snap-tagged, on HEK cells; test: Tag-Lite HTRF on HER3 Snap-tagged HEK cells, d2-labelled mAb, without NRG
Procedure: as §1

[6] = biological target: T1, HER3 Snap-tagged, on HEK cells; test: Tag-Lite HTRF on HER3 Snap-tagged HEK cells; d2-labelled 9F7-F11 varied; co-incubated with NRG (legend printed 'NRG 100 mM')
Procedure: as §1

[7] = biological target: T2, human HER3 receptor on cells; test: flow cytometry competition on SKBR3 cells; NRG varied, displaced molecule: antibody B at a fixed concentration
Procedure: Cells were then washed and further incubated with a 1:60 dilution of appropriate FITC-conjugated secondary antibody (Sigma) for 45 min on ice, before cytometry analysis on a Quanta apparatus (Beckman-Coulter).

[8] = biological target: T2, human HER3 receptor on cells; test: fluorescence of d2-labelled NRG on HER2/HER3-transfected 3T3 fibroblasts; unlabelled NRG varied, displaced molecule: d2-labelled NRG
Procedure: as §2

Row | Binder | Kd [1] [nM] | EC50 (read off the curve) [2] [nM] | EC50 (read off the curve) [3] [nM] | fold increase of affinity with NRG against without NRG [4] [fold] | Kd [5] [nM] | EC50 (read off the curve) [6] [nM] | IC50 (read off the curve) [7] [nM] | IC50 (read off the curve) [8] [nM]
1 | murine anti-human-HER3 monoclonal antibody 9F7-F11 (antibody, V domains shown, Murine hybridoma antibody; also called mAb 9F7-F11; anti-HER3 Ab 9F7-F11) VH: EVKLVESGGGLVQPGGSLKLSCAASGFTFSSYTMSWVRQTPEKRLEWVAYISDGGGVTYYPDTIKGRFTISRDNAKNTLYLQMSSLKSEDTAMYYCARDRYGLFAYWGQGTLVTVSA VL: DIVMTQSQKFMSTSVGDRVSITCKASQNVGIAVAWYQQKPGQSPKLLIYSASNRYTGVPDRFTGSGSGTDFTLTISNMQSEDLADYFCQQYSNYPYTFGGGTKLEIK | 0.47 | ~2 | ~10 | 6 | 2.33 | ~0.5 | – | –
2 | neuregulin (NRG) (ligand, UniProt Q02297-6 177-241, looked up, also: d2 dye label as tracer, site not given here, also called neuregulin 131 (as printed, probably neuregulin beta1); heregulin) SHLVKCAEKEKTFCVNGGECFMVKDLSNPSRYLCKCPNEFTGDRCQNYVMASFYKHLGIEFMEAE | – | – | – | – | – | – | ~2 | ~5
